Marks after values point to notes of the source that are not given here.
Assays:
[1] = system: relapsed or refractory multiple myeloma; assay: COLUMBA monotherapy, efficacy; type: in vivo, human
Source text: The major efficacy outcome measures were ORR by the IMWG response criteria and maximum Ctrough at pre-dose Cycle 3 Day 1 [see Clinical Pharmacology (12.3)]. Randomization was stratified by body weight, myeloma type, and number of prior lines of therapy.

[2] = Daratumumab pharmacokinetics in patients with multiple myeloma; type: in vivo, human
[3] = COLUMBA monotherapy, safety (relapsed/refractory multiple myeloma)
Description: FASPRO 1,800 mg/30,000 units administered subcutaneously or daratumumab 16 mg/kg administered intravenously; each administered once weekly from weeks 1 to 8, once every 2 weeks from weeks 9 to 24 and once every 4 weeks starting with week 25 until disease progression or unacceptable toxicity.

[4] = Daratumumab pharmacokinetics in patients with light chain (AL) amyloidosis; type: in vivo, human
[5] = Daratumumab pharmacokinetics after DARZALEX FASPRO, population not specified or pooled; type: in vivo, human; details: DARZALEX FASPRO as monotherapy or combination therapy
[6] = target: T1, CD38 on red blood cells (RBCs) (Homo sapiens, UniProt P28907); assay: Interference with Indirect Antiglobulin Test (Indirect Coombs test)
T1 construct: endogenous in cells; host or cells: red blood cells (reagent RBCs used in blood-bank compatibility testing)
Source text: Daratumumab binds to CD38 on red blood cells (RBCs) and results in a positive Indirect Antiglobulin Test (Indirect Coombs test). Daratumumab-mediated positive indirect antiglobulin test may persist for up to 6 months after the last daratumumab administration. Daratumumab bound to RBCs masks detection of antibodies to minor antigens in the patient's serum [see References (15)]. The determination of a patient's ABO and Rh blood type are not impacted [see Drug Interactions (7.1)].
Daratumumab binds to CD38 on RBCs and interferes with compatibility testing, including antibody screening and cross matching. Daratumumab interference mitigation methods include treating reagent RBCs with dithiothreitol (DTT) to disrupt daratumumab binding [see References (15)] or genotyping. Since the Kell blood group system is also sensitive to DTT treatment, supply K-negative units after ruling out or identifying alloantibodies using DTT-treated RBCs.

[7] = Hyaluronidase subcutaneous exposure and toxicity in monkeys; type: in vivo
Description: No carcinogenicity, genotoxicity, or fertility studies were conducted for recombinant human hyaluronidase. […] As hyaluronidase is a recombinant form of the endogenous human hyaluronidase, no carcinogenicity, mutagenesis, or effects on fertility are expected.

[8] = Hyaluronidase effect on permeability of the subcutaneous tissue
Source text: Hyaluronan is a polysaccharide found in the extracellular matrix of the subcutaneous tissue. It is depolymerized by the naturally occurring enzyme hyaluronidase. Unlike the stable structural components of the interstitial matrix, hyaluronan has a half-life of approximately 0.5 days. Hyaluronidase increases permeability of the subcutaneous tissue by depolymerizing hyaluronan. In the doses administered, hyaluronidase in DARZALEX FASPRO acts locally. The effects of hyaluronidase are reversible and permeability of the subcutaneous tissue is restored within 24 to 48 hours.

[9] = Hyaluronidase developmental toxicity in mice; type: in vivo
Source text: There were no effects on pre- and post-natal development through sexual maturity in offspring of mice treated daily from implantation through lactation with 990,000 U/kg hyaluronidase subcutaneously, which is 134 times higher than the human doses.

[10] = monkeys, 22,000 U/kg/week subcutaneously for 39 weeks

Intravenous Daratumumab: daratumumab 16 mg/kg administered intravenously, comparator arm in COLUMBA
CR or better, % [1]: 2.7% | Median progression-free survival [1]: 6.1 months | Partial response (PR), % [1]: 20% | Very good partial response (VGPR), % [1]: 14% | Overall response (sCR + CR + VGPR + PR), % ([1]; intent-to-treat population): 37% | Observed mean ± SD max Ctrough after 8th dose ([2]; patients with multiple myeloma): 522 ± 226^a, b μg/mL | Back pain, All Grades ([3]; monotherapy): 12% | Back pain, Grade ≥ 3 ([3]; monotherapy): 3^# % | Chills, All Grades ([3]; monotherapy): 12% | Chills, Grade ≥ 3 ([3]; monotherapy): 1^# % | Cough, All Grades ([3]; monotherapy): 14% | Cough, Grade ≥ 3 ([3]; monotherapy): 0^ % | Diarrhea, All Grades ([3]; monotherapy): 11% | Diarrhea, Grade ≥ 3 ([3]; monotherapy): 0.4^# % | Dyspnea, All Grades ([3]; monotherapy): 11% | Dyspnea, Grade ≥ 3 ([3]; monotherapy): 1^# % | Fatigue, All Grades ([3]; monotherapy): 16% | Fatigue, Grade ≥ 3 ([3]; monotherapy): 2^# % | Infusion reactions, All Grades ([3]; monotherapy): 34% | Infusion reactions, Grade ≥ 3 ([3]; monotherapy): 5^# % | Nausea, All Grades ([3]; monotherapy): 11% | Nausea, Grade ≥ 3 ([3]; monotherapy): 0.4^# % | Pneumonia, All Grades ([3]; monotherapy): 10% | Pneumonia, Grade ≥ 3 ([3]; monotherapy): 6^@ % | Pyrexia, All Grades ([3]; monotherapy): 13% | Pyrexia, Grade ≥ 3 ([3]; monotherapy): 1^# % | Upper respiratory tract infection, All Grades ([3]; monotherapy): 22% | Upper respiratory tract infection, Grade ≥ 3 ([3]; monotherapy): 1^# % | Decreased hemoglobin, All Grades ([3]; worsening from baseline): 39% | Decreased hemoglobin, Grades 3-4 ([3]; worsening from baseline): 16% | Decreased leukocytes, All Grades ([3]; worsening from baseline): 57% | Decreased leukocytes, Grades 3-4 ([3]; worsening from baseline): 14% | Decreased lymphocytes, All Grades ([3]; worsening from baseline): 56% | Decreased lymphocytes, Grades 3-4 ([3]; worsening from baseline): 36% | Decreased neutrophils, All Grades ([3]; worsening from baseline): 43% | Decreased neutrophils, Grades 3-4 ([3]; worsening from baseline): 11% | Decreased platelets, All Grades ([3]; worsening from baseline): 45% | Decreased platelets, Grades 3-4 ([3]; worsening from baseline): 14%

Daratumumab: IgG1κ human monoclonal antibody that binds CD38; heavy chain SEQ ID NO: 12, light chain SEQ ID NO: 13
estimated mean volume of distribution ([4]; CV 28%): 10.8 L | estimated mean (CV %) linear clearance ([4]; CV 42%): 210 mL/day | estimated mean (CV %) elimination half-life associated with linear clearance ([4]; CV 74%): 28 days | effect of sex, age (33 to 92 years), renal impairment (CLcr 15 to 89 mL/min) and mild hepatic impairment on pharmacokinetics [5]: no clinically meaningful effect | estimated mean volume of distribution, peripheral compartment ([2]; multiple myeloma): 3.8 L | estimated mean (CV %) elimination half-life associated with linear clearance ([2]; multiple myeloma, CV 22%): 20 days | estimated mean (CV) volume of distribution for the central compartment ([2]; multiple myeloma, CV 37%): 5.2 L | estimated mean (CV %) linear clearance ([2]; multiple myeloma, CV 59%): 119 mL/day | persistence of positive indirect antiglobulin test after the last administration [6]: up to 6 months | Indirect Antiglobulin Test (Indirect Coombs test) result ([6]; binding to CD38 on RBCs): positive

B1: hyaluronidase: recombinant human hyaluronidase rHuPH20, SEQ ID NO: 22, residues 36-482 of wild type human hyaluronidase (protein, listed as Homo sapiens)
chain: LNFRAPPVIPNVPFLWAWNAPSEFCLGKFDEPLDMSLFSFIGSPRINATGQGVTIFYVDRLGYYPYIDSITGVTVNGGIPQKISLQDHLDKAKKDITFYMPVDNLGMAVIDWEEWRPTWARNWKPKDVYKNRSIELVQQQNVQLSLTEATEKAKQEFEKAGKDFLVETIKLGKLLRPNHLWGYYLFPDCYNHHYKKPGYNGSCFNVEIKRNDDLSWLWNESTALYPSIYLNTQQSPVAATLYVRNRVREAIRVSKIPDAKSPLPVFAYTRIVFTDQVLKFLSQDELVYTFGETVALGASGIVIWGTLSIMRSMKSCLLLDNYMETILNPYIINVTLAAKMCSQVLCQEQGVCIRKNWNSSDYLHLNPDNFAIQLEKGGKFTVRGKPTLEDLEQFSEKFYCSCYSTLSCKEKADVKDTDAVDVCIADGVCIDAFLKPPMETEEPQIFY
systemic exposure of hyaluronidase ([7]; monkeys, 22,000 U/kg subcutaneously (12 times the human dose)): No systemic exposure of hyaluronidase was detected | effects on reproductive tissues and function [7, 10]: no effects | systemic exposure of hyaluronidase [7, 10]: no systemic exposure | time until permeability of the subcutaneous tissue is restored [8]: 24 to 48 h | effects on post-natal development through sexual maturity in offspring ([9]; mice treated daily during lactation, 990,000 U/kg subcutaneously): no effects | effects on pre- and post-natal development through sexual maturity in offspring ([9]; mice treated daily from implantation through lactation, 990,000 U/kg subcutaneously): no effects | effects on embryo-fetal development ([9]; pregnant mice, 330,000 U/kg subcutaneously daily during organogenesis): no effects
